Data published in patent US20240252641A1 (TCR2 THERAPEUTICS, published 2024).

T1: human CD70, recombinant, N-terminally biotinylated (residues 39-193) (human, UniProt P32970 39-193, N-terminal biotin)
T1 construct: range 39-193; the same entry is used there; also called biotinylated human CD70; CD70 biotin
T1 sequence (looked up): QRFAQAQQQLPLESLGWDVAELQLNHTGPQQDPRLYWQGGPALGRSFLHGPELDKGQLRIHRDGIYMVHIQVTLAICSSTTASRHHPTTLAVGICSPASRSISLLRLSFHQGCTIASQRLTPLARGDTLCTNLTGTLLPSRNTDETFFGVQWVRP

T2: CD70 on cells (CHO-CD70, JVM-3, U266, Raji, THP-1, T cells) (human, UniProt P32970 1-193)
T2 construct: whole, on cells; also called cell-surface CD70
T2 sequence (looked up): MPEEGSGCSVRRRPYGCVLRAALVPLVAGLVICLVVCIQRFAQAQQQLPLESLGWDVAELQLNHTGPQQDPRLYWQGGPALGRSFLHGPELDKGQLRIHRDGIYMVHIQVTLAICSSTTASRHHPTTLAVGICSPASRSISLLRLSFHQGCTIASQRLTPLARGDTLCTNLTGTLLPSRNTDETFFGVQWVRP

B1: 4-TC4-I-G08 (scFv)
scFv: QVQLVQSGGGVVQPGRSLRLSCAASGFTFSSYAMHWVRQAPGKGLEWVAVISYDGSNKYYADSVKGRFTISRDNAKNSLYLQMNSLRDEDTAVYYCARDESFDYGVDVWGKGTTVTVSSGGSGGSGGSGGSSSELTQDPAVSVALGQTVRITCQGDSLRSYYASWYQQKPGQAPVLVIYGKNNRPSGIPDRFSGSSSGNTASLTITGAQAEDEADYYCNSRDSSGNHLVVFGGGTKLTVL
notes: His-tagged
B2: 49-TC4-XVI-F01 (scFv)
scFv: QVQLVESGGGVVQPGRSLRLSCAASGFTFSSYAMHWVRQAPGKGLEWVAVISYDGSNKYYADSVKGRFTISRDNSKNTLYLQMNSLRAEDTAVYYCARDSTQDYGMDVWGQGTMVTVSSGGSGGSGGSGGSSSELTQDPAVSVALGQTVRITCQGDSLRNYYASWYQQKPGQAPVLVFYGKNNRPSGIPDRFSGSSSGNTASLTITGAQAEDEADYYCNSRDSSGNHLVVFGGGTKLTVL
notes: His-tagged
B3: 42-TC4-VII-G08 (scFv)
scFv: QVQLVQSGGGVVQPGRSLRLSCAASGFTFSSYAMHWVRQAPGKGLEWVAVISYDGSNKYYADSVKGRFTISRDNSKNTLYLQMNSLRAEDTAVYYCARDLSYDYGFDYWGQGTLVTVSSGGSGGSGGSGGSSSELTQDPAVSVALGQTVRITCQGDSLRSYYASWYQQKPGQAPVLVIYGKNNRPSGIPDRFSGSSSGNTASLTITGAQAEDEADYYCNSRDSSGNHLVVFGGGTKVTVL
notes: His-tagged
B4: 53-TC7-VI-B06 (scFv)
scFv: EVQLLESGGGVVQPGRSLRLSCAASGFTFSSYGMHWVRQAPGKGLEWVAVISYDGSNKYYADSVKGRFTISRDNSKNTLYLQMNSLRAEDTAVYYCAKGELELTNWGQGTLVTVSSGGSGGSGGSGGSSYELTQPPSVSVAPGQTARITCGGNNIGSKSVHWYQQKSGQAPVLVVYDDTDRPSGTPERFSGSNSGNTATLTISGTQAMDEADYYCQAWDSSTAVFGTGTKVTVL
notes: His-tagged
B5: 16-TC4-I-C11 (scFv)
scFv: QVQLVQSGAEVKKPGSSVKVSCKASGGTFSSYAISWVRQAPGQGLEWMGWISAYNGNTNYAQKLQGRVTMTTDTSTSTAYMELRSLRSDDTAVYYCARVTPPGWLGNMDVWGKGTTVTVSSGGSGGSGGSGGSSYELMQSPSVSVAPGQTARITCGGRDIGSKSVHWYQQKPGQAPVLVVYDDSDRPSGIPERLSGSNFGNEATLTISRVEAGDEGDYFCQVWDSSTDVVFGGGTKVTVL
notes: His-tagged
B6: 60-TC7-VII-C02 (scFv)
scFv: QVQLQQWGAGLLKPSETLSLTCAVYGGSFSGYYWSWIRQPPGKGLEWIGEINHSGSTNYNPSLKSRVTISVDTSKNQFSLKLSSVTAADTAVYYCARSPLWFGPPDAFDIWGQGTMVTVSSGGSGGSGGSGGSQSALTQPPSASGSPGQSVSISCTGTSSDVGGYNYVSWYQQHPGKAPKLIIYDVDKRPSGIPERFSGSNSGNTATLTISGTQAMDEADYYCQAWDSSTEVVFGGGTKVTVL
notes: His-tagged
B7: 13-TC7-V-H10 (scFv)
scFv: QVQLQQWGAGLLKPSETLSLTCAVYGGSFSGYYWSWIRQPPGKGLEWIGEINHSGSTNYNPSLKSRVTISVDTSKNQFSLKLSSVTAADTAVYYCARSRRPYWYFDLWGRGTLVTVSSGGSGGSGGSGGSQSALTQPASVSGSPGQSITISCTGTSSDVGGYNSVSWYRQHPGKAPKLMIYDVTNRPSGVSNRFSGSKSGNTASLTISGLQAEDEADYYCSSSSISATWVFGGGTKLTVL
notes: His-tagged
B8: 50-TC7-III-A11 (scFv)
scFv: QVQLVQSGAEVKRPGASVKVSCKASGYTFTSYYMHWVRQAPGQGLEWMGIINPSGGSTSYAQKFQGRVTMTRDTSTSTVYMELSSLRSEDTAVYYCAIEPGYCSGGSCYPDAFDIWGQGTTVTVSSGGSGGSGGSGGSQSVLTQPPSASGTPGQRVTISCSGSSSNIGSDYVYWYQRVPGTAPKLLIYRDNQRPSGVPDRFSGSKSGTSASLAISGLRSDDEADYYCAAWDDSLSGWVFGGGTKVTVL
notes: His-tagged; also called 1985
B9: 47-TC7-III-D10 (scFv)
scFv: QVQLVQSGAEVKKPGASVKVSCKASGYTFTSYGISWVRQAPGQGLEWMGWISAYNGNTNYAQKLQGRVTMTTDTSTSTAYMELRSLRSDDTAVYYCARDSSSWYYYYGMDVWGQGTTVTVSSGGSGGSGGSGGSSYELTQPPSVSVSPGQTARISCSGDALPNQYAYWYQQKPGQAPVLVIYQDSERPSGIPERFSGSSSGTTVTLTISGVQAEDEADYYCQSADTYGTSWVFGGGTKLTVL
notes: His-tagged
B10: 32-TC1.2-I-F07-6 (scFv)
scFv: QVQLVQSGAEVKKPGESLKISCKGSGYSFTSYWIGWVRQMPGKGLEWMGIIYPGESDTRYSPSFQGQVTISADKSISTAYLQWSSLKASDTAMYYCARRNYYDRSGYVDAFDIWGQGTMVTVSSGGSGGSGGSGGSSSELTQDPAVSVALGQTVRITCQGDSLRRFYASWHQQKPGQAPIVVMYAENNRPSGIPDRFSGSSSGNTASLTITGAQAEDEATYYCNSRDSSGNRHVFGTGTKLTVL
notes: His-tagged
B11: 39-TC6-IV-B08 (scFv)
scFv: QVQLVESGGGVVQPGGSLRLSCAASGFTFSSYAMHWVRQAPGKGLEWVAVISYDGSNKYYADSVKGRFTISRDNSKNTLYLQMNSLRAEDTAVYYCARDGHPYYYGMDVWGQGTTVTVSSGGSGGSGGSGGSQSALTQPASVSGSPGQSITISCTGTSSDVGDYNYVSWYQHHPGKAPKLMIYDVSNRPSGVSNRFSGSKSGNTASLTISGLQAEDEADYYCGSYTGSDTWVFGGGTKVTVL
notes: His-tagged; also called 1885
B12: 37-TC7-VII-D05 (scFv)
scFv: QMQLVQSGGGVVQPGRSLRLSCAASGFTFSSYAMHWVRQAPGKGLEWVAVISYDGSNKYYADSVKGRFTISRDNSKNTLYLQMNSLRAEDTAVYYCARDALWDTATFDYWGQGTLVTVSSGGSGGSGGSGGSSSELTQDPAVSVALGQTVRITCQGDSLRSYYASWYQQKPGQAPVLVIYGKNNRPSGIPDRFSGSSSGNTASLTITGAQAEDEADYYCNSRDSSGNPWVFGGGTKLTVL
notes: His-tagged

Legend:
[1] = target: T1, human CD70, recombinant, N-terminally …; experiment: CD27 blocking ELISA, 3 µM scFv, strep/HRP
[2] = target: T2, CD70 on cells (CHO-CD70, JVM-3, U266, …); experiment: 1.25 µg/mL scFv on JVM-3 cells
Procedure, shortened: (§1)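 Human scFv antibodies were raised by panning a naïve human library against the CD70 extracellular domain (aa39-193). They were tested for binding to tumour cell lines with high CD70 expression (CHO-CD70, JVM3, U266) and low CD70 expression (CHO WT, K562). Cell binding was recorded per cell line, and the detection method is not stated.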

[3] = target: T2, CD70 on cells (CHO-CD70, JVM-3, U266, …); experiment: 1.25 µg/mL scFv on U266 cells
Procedure, shortened: as §1

[4] = target: T1, human CD70, recombinant, N-terminally …; experiment: SPR
Procedure, shortened: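 The scFv antibodies are human and were isolated by panning a naïve human library on the extracellular domain of CD70 (aa39-193). Their affinity (Kd) was measured by surface plasmon resonance analysis. The binding partner was recombinant human antigen biotinylated at the N-terminus.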

[5] = target: T1, human CD70, recombinant, N-terminally …; experiment: CD27 blocking ELISA, 3 µM scFv, anti-His/HRP; note: unit not given here
Experimental: Human scFv antibodies binding CD70 were generated by panning a naïve human library with the extracellular domain (aa39-193) of CD70. 53 antibodies were identified. The ability of CD27 to block CD70 binding of the identified antibodies was measured by ELISA using two different assays. In the first assay, CD27 and his-tagged scFv anti-CD70 binders were simultaneously added to surface bound CD70, and the ability of the scFv binders to bind CD70 was detected with anti-His HRP. In the second assay, plate-bound CD70 was pre-incubated with CD27 for 30 minutes, and then additional CD27 and the his-tagged scFv anti-CD70 binder was added. The ability of the scFv binders to bind CD70 was detected with anti-His HRP. FIG. 34 is a schematic of the two different CD27 blocking assays. CD70 affinity was also measured by SPR analysis. scFv antibodies were also tested for their ability to bind tumor cell lines with high (CHO-CD70, JVM3, and U266) and low levels (CHO WT and K562 of CD70 expression. Results for 39 antibodies are shown in Table 1 below.

[6] = target: T2, CD70 on cells (CHO-CD70, JVM-3, U266, …); experiment: 1.25 µg/mL scFv on CHO-CD70 cells
Procedure, shortened: as §1

Binder | strep/HRP [1] | cell binding [2] | cell binding [3] | Kd [4] [nM] | anti His/HRP [5] | cell binding [6]
B1 | 1.03 | 34000 | 23500 | 1410 | 2.29 | 387000
B2 | 1.29 | 5410 | 2980 | 1060 | 2.12 | 134000
B3 | 1.11 | 33900 | 13100 | 179 | 2.34 | 364000
B4 | 1.44 | 1830 | 1170 | 235 | 1.38 | 12200
B5 | 1.43 | 103000 | 51000 | 40.2 | 2.1 | 660000
B6 | 1.58 | 10800 | 5040 | 135 | 1.27 | 458000
B7 | 1.38 | 87500 | 34300 | 66.9 | 1.97 | 601000
B8 | 0.868 | 12200 | 45000 | 4190 | 2.25 | 122000
B9 | 1.55 | 34700 | 19000 | 18.6 | 1.5 | 313000
B10 | 0.113 | 57300 | 20700 | 7.41 | 2.42 | 553000
B11 | 0.268 | 25300 | 35900 | 2890 | 2.97 | 52200
B12 | 0.655 | 11000 | 15900 | 5640 | 2.28 | 111000
